Results reported in publication PMC5089669, “Biocatalytic Properties and Structural Analysis of Eugenol Oxidase from Rhodococcus jostii RHA1: A Versatile Oxidative Biocatalyst” (Chembiochem, 2016).

Target: the molecule itself
Test: crystal structure; sitting-drop vapour diffusion at 20 °C; EUGO 15 mg/mL in 10 mM Tris-HCl pH 7.5 with 24 % PEG6000, 0.1 M Tris-HCl pH 8.0; crystals soaked with isoeugenol; two subunits in the asymmetric unit

B1: Eugenol oxidase (EUGO) from Rhodococcus jostii RHA1 (enzyme, UniProt Q0SBK1 1-526, looked up)
chain: MTRTLPPGVSDERFDAALQRFRDVVGDKWVLSTADELEAFRDPYPVGAAEANLPSAVVSPESTEQVQDIVRIANEYGIPLSPVSTGKNNGYGGAAPRLSGSVIVKTGERMNRILEVNEKYGYALLEPGVTYFDLYEYLQSHDSGLMLDCPDLGWGSVVGNTLDRGVGYTPYGDHFMWQTGLEVVLPQGEVMRTGMGALPGSDAWQLFPYGFGPFPDGMFTQSNLGIVTKMGIALMQRPPASQSFLITFDKEEDLEQIVDIMLPLRINMAPLQNVPVLRNIFMDAAAVSKRTEWFDGDGPMPAEAIERMKKDLDLGFWNFYGTLYGPPPLIEMYYGMIKEAFGKIPGARFFTHEERDDRGGHVLQDRHKINNGIPSLDELQLLDWVPNGGHIGFSPVSAPDGREAMKQFEMVRNRANEYNKDYAAQFIIGLREMHHVCLFIYDTAIPEAREEILQMTKVLVREAAEAGYGEYRTHNALMDDVMATFNWGDGALLKFHEKIKDALDPNGIIAPGKSGIWSQRFRGQNL
modifications: FAD covalently bound: bond between His390 and the C8M atom of the flavin ring
notes: eugenol oxidase (EUGO), flavoprotein oxidase of the VAO family, Rhodococcus jostii RHA1; source: E. coli culture
In the case of B1, the “stoichiometry N” value is reported as 2.
